# Laboratory results published in the supplement of paper PMC10567573.
# B1: ZNF263 (parent)
# chain: VPGTQVGQGGKLWDPSVQSCKEGL
# B2: TMEM175 (parent)
# chain: ALLHQAETLQPSVWFGGREHVLMF
# Variants of: B1
# Test: protein stability index of a GFP-peptide fusion (GPS, HEK-293T) (PSI 1-6); higher = more stable
# Settings: c terminus: a fixed tail appended
# 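Also: lentivirally expressed fusions sorted by FACS into six bins by GFP to DsRed ratio, PSI derived from sequencing read proportions per bin multiplied by bin number.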
row,Variant,protein stability index
1,G7I,3.67
2,G7A,4.02
3,G7N,4.76
4,G7P,3.78
5,G7Q,3.69
6,G7F,3.36
7,G7Y,3.86
8,G7L,3.77
9,G7V,3.87
10,G3K,3.77
11,G3T,4.32
12,G3A,4.21
13,G3L,4.1
14,G3S,3.48
15,G3W,3.77
16,G3N,4.3
17,G3V,3.99
18,G3E,4.88
19,Q18Y,4.01
20,Q18A,3.46
21,Q18I,4.01
22,Q18K,4.39
23,Q18N,3.42
24,Q18E,4.7

row,Variant,protein stability index
1,Q18M,4.38
2,Q18R,3.05
3,Q18V,3.87
4,Q18H,3.89
5,G9V,3.67
6,G9N,3.47
7,G9Y,3.59
8,G9L,4.19
9,G9M,3.42
10,G9S,4.23
11,G9Q,4.22
12,G9W,3.33
13,G9F,3.87
14,G9I,3.8
15,G9C,3.73
16,E22S,3.95
17,E22P,3.46
18,E22W,1.99
19,E22Q,3.84
20,E22G,4.34
21,E22H,3.98
22,E22K,4.49
23,E22T,4.42
24,E22F,2.58

row,Variant,protein stability index
1,E22Y,3.07
2,E22L,2.96
3,E22R,4.05
4,V1K,4.36
5,V1F,1.64
6,V1W,4.23
7,V1Q,4.51
8,V1G,4.05
9,V1N,4.53
10,V1S,4.19
11,V1D,4.85
12,V1H,4.17
13,V1R,4.08
14,V1A,4.56
15,V1T,4.63
16,V1Y,1.85
17,P2D,4.12
18,P2F,3.99
19,P2Y,2.83
20,P2H,3.75
21,P2V,4.01
22,P2S,3.55
23,P2E,4.25
24,P2W,3.12

row,Variant,protein stability index
1,P2K,3.89
2,P2N,4.18
3,V6I,4.28
4,V6S,4.67
5,V6R,4.55
6,V6Q,4.73
7,V6G,4.83
8,V6H,3.51
9,V6W,3.36
10,V6M,4.29
11,V6L,4.03
12,V6A,3.97
13,V6K,4.69
14,V6E,4.29
15,V6F,4.65
16,W13S,4.54
17,W13Q,4.79
18,W13E,5.29
19,W13M,4.41
20,C20Q,4.6
21,C20T,4.25
22,C20R,4.04
23,C20K,4.13
24,C20L,4.05

row,Variant,protein stability index
1,C20P,4.33
2,C20G,4.74
3,G10N,4.19
4,G10Q,4.38
5,G10R,4.96
6,G10A,4.33
7,G10Y,3.55
8,G10S,4.48
9,G10T,4.31
10,G10F,2.93
11,T4V,4.57
12,T4W,3.55
13,T4F,4.15
14,T4D,4.85
15,T4I,3.42
16,T4E,3.4
17,T4M,3.92
18,T4H,4.1
19,T4A,4.55
20,T4G,4.26
21,T4S,4.08
22,Q5N,4.23
23,Q5V,4.24
24,Q5S,4.13

row,Variant,protein stability index
1,Q5G,4.27
2,Q5Y,3.25
3,Q5W,4.15
4,Q5M,3.79
5,Q5D,4.16
6,Q5T,4.2
7,Q5H,4.63
8,Q5L,4.17
9,Q5R,4.2
10,Q5P,4.33
11,P15Q,4.25
12,P15G,4.35
13,P15F,2.86
14,P15L,4.8
15,P15N,4.13
16,P15A,4.22
17,P15Y,3.16
18,P15V,3.63
19,D14K,3.51
20,D14W,3.19
21,D14G,4.1
22,D14A,4.14
23,D14H,4.08
24,D14E,3.78

row,Variant,protein stability index
1,D14R,3.05
2,D14C,3.35
3,D14N,3.72
4,D14Q,4.09
5,L12N,4.42
6,L12V,4.42
7,L12W,4.01
8,L12Q,4.72
9,L12S,4.3
10,L12Y,3.79
11,L12A,3.4
12,L12P,5.07
13,L12I,3.65
14,S19F,3.98
15,S19M,3.69
16,S19I,3.77
17,S19T,4.29
18,S19W,3.38
19,S19V,4.31
20,S19L,4.04
21,S19N,4.39
22,L24I,4.22
23,L24H,4.27
24,L24S,4.99

row,Variant,protein stability index
1,L24Q,5.03
2,L24P,4.79
3,L24N,4.76
4,L24T,4.26
5,L24R,4.92
6,L24M,4.09
7,L24A,4.69
8,L24W,4.32
9,L24G,4.49
10,G23F,2.69
11,G23N,4.34
12,G23E,4.4
13,G23V,4.6
14,G23L,3.62
15,G23A,3.89
16,G23S,3.98
17,G23Y,2.96
18,G23H,3.64
19,G23I,3.46
20,S16E,4.73
21,S16P,4.45
22,S16M,3.92
23,S16C,4.11
24,S16W,3.17

row,Variant,protein stability index
1,S16I,3.15
2,S16N,3.89
3,S16F,3.12
4,Q8D,4.71
5,Q8V,4.04
6,Q8C,3.07
7,Q8G,4.28
8,Q8M,3.97
9,Q8I,4.15
10,Q8A,4.41
11,Q8W,3.67
12,Q8R,4.34
13,Q8K,4.11
14,Q8S,3.71
15,K21N,4.16
16,K21A,3.91
17,K21F,3.27
18,K21L,3.69
19,K21Q,4.29
20,K21V,3.89
21,K21S,3.72
22,K21D,4.79
23,K21E,4.78
24,V17I,3.89

row,Variant,protein stability index
1,V17L,4.08
2,V17S,4.92
3,V17F,3.38
4,V17N,4.07
5,V17H,4.1
6,V17Q,3.8
7,V17Y,4.1
8,V17P,4.24
9,V17E,5.16
10,V17T,3.74
11,K11F,3.9
12,K11Q,4.54
13,K11V,3.61
14,K11D,4.63
15,K11T,4.31
16,K11S,4.35
17,K11I,4.26
18,K11Y,4.12
19,K11L,4.13
20,K11W,3.72
21,K11M,4.56
22,K11A,4

# Variants of: B2
# Test: as above
# Settings: c terminus: a fixed tail appended
row,Variant,protein stability index
1,H20E,1.6
2,H20P,3.07
3,H20I,2.97
4,H20G,1.74
5,G17E,1
6,G17K,1.66
7,G17R,3.53
8,G17I,2.68
9,G17N,2.51
10,G17Y,1.58
11,G17V,2.62
12,H4G,1.75
13,H4P,1.41
14,H4K,1.52
15,H4N,2.84
16,H4D,1.89
17,V21D,1.77
18,V21K,2.1
19,V21G,2.89
20,V21Q,1.69
21,V21R,2.18
22,Q5N,2.68
23,Q5P,2.78
24,Q5R,2.33

row,Variant,protein stability index
1,Q5L,3.8
2,Q5S,2.72
3,V13H,2.22
4,V13E,1.86
5,V13W,2.36
6,V13A,3.02
7,V13N,2.28
8,V13L,2.59
9,S12E,2.31
10,S12M,1.75
11,S12N,1
12,Q10D,2.35
13,Q10W,1.51
14,Q10I,2.49
15,F24S,2.56
16,F24R,2.56
17,F24K,2.5
18,F24P,1.54
19,E19P,2.37
20,E19A,2.27
21,A6E,1.54
22,A6F,3.21
23,A6K,1.68
24,E7P,1.96

row,Variant,protein stability index
1,E7K,3.58
2,L2I,3.26
3,L2S,2.83
4,L2H,1.48
5,L2Q,1.42
6,M23Q,1.84
7,M23F,1.67
8,M23H,2.39
9,M23R,1.03
10,M23K,1.74
11,W14M,2.08
12,W14S,1.55
13,W14Q,2.24
14,W14N,1.3
15,A1T,2.38
16,A1R,1.81
17,A1L,2.58
18,A1I,3.59
19,R18N,3.11
20,R18K,3.39
21,G16K,2.17
22,G16S,2.06
23,G16Y,3.05
24,P11R,4.75

row,Variant,protein stability index
1,P11Q,1.38
2,L22H,2.68
3,L22R,1.93
4,L22Q,1.9
5,L22A,1.1
6,L22F,2.44
7,L22M,2.03
8,L9S,1.36
9,L9A,2.42
10,L3Y,3.46
11,L3E,1.94
12,L3T,2.37
13,L3H,1.57
14,F15Y,2.4
15,F15R,2.02
16,F15M,1.82
17,F15N,1.65
18,F15D,2.29
19,F15A,1.88
20,T8K,3.25
21,T8W,1.69
22,T8F,3.68
23,T8D,1.83
24,T8N,1.63
